Laboratory results published in patent US20240002497A1 (Merck Sharp & Dohme, published 2024).

Experiments:
[1] = target: T1, huNav1.7α + β1-β2-β3 (human Nav1.7α co-expressed with human Navβ1, Navβ2 and Navβ3 on cells) (human); assay: binding FACS, CHO FlpIn cells
T1 construct: also called huNav1.7-beta1-beta2-beta3; CHO FlpIn huNav1.7α + β1-β2-β3
Outline: (§1)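 Cells in FACS buffer (PBS, 10% FBS, NaN₃) were incubated with purified FLAG3-tagged ISVD for 30 minutes at 4° C. Bound ISVD was detected by flow cytometry with murine anti-Flag, and dead cells were excluded with 1 μg/mL propidium iodide.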

[2] = target: T2, rhNav1.7α + β1-β2-β3 (rhesus Nav1.7α co-expressed with Navβ1, Navβ2 and Navβ3 on cells) (rhesus monkey (α subunit); β subunits …); assay: binding FACS, CHO FlpIn cells
T2 construct: also called rhNav1.7-beta1-beta2-beta3; CHO FlpIn rhNav1.7α + β1-β2-β3
Outline: as §1

B1: F010302326 (VHH)
VHH: EVQLVESGGGVVQPGGSLRLSCAASGPVFNINRMAWYRQAPGKQRELVAYVTPTGDISYADSVKGRFTISRDGSKRVYLQMNSLRPEDTALYYCRALLQPRSYSNTRTYWGQGTLVTVSS
notes: also called F0103387G04(L11V, A12V, K33R, R39Q, S50Y, S56D, T60A, W78V, S79Y, T83R, V89L, N93R, D99R)
Q: What does the source list for B1?
A: Bmax [1]: 89%; EC50 [1]: 6.2 nM; Bmax [2]: 32%; EC50 [2]: 18 nM

B2: F010302327 (VHH)
VHH: EVQLVESGGGVVQPGGSLRLSCAASGPVFNINRMAWYRQAPGKQRELVAYVTPTGDISYADSVKGRFTISRDASKRVYLQMNSLRPEDTALYYCRALLQPRSYSNTRTYWGQGTLVTVSS
notes: also called F0103387G04(L11V, A12V, K33R, R39Q, S50Y, S56D, T60A, G73A, W78V, S79Y, T83R, V89L, N93R, D99R)
Q: Which Bmax [1] does the source give for B2 here?
A: Its Bmax is 87%.

Q: And the EC50 [1]?
A: The EC50 was 7 nM.

Q: What about the Bmax [2] of the same binder?
A: Its Bmax is 7%.

Q: And the EC50 [2]?
A: Its EC50 is 93 nM.

B3: F010302329 (VHH)
VHH: EVQLVESGGGVVQPGGSLRLSCAASGPVFNINRMAWYRQAPGKQRELVAYVTPTGDISYADSVKGRFTISRDGSKRVYLQMNSLRPEDTALYYCRALLQPDRYSNTRTYWGQGTLVTVSS
notes: also called F0103387G04(L11V, A12V, K33R, R39Q, S50Y, S56D, T60A, W78V, S79Y, T83R, V89L, N93R, S100R)
Q: With B3 as the binder, how does the Bmax [1] read?
A: Its Bmax is 94%.

Q: What about the EC50 [1] of the same binder?
A: Its EC50 is 7.6 nM.

Q: And the Bmax [2]?
A: Its Bmax is 44%.

Q: What about the EC50 [2] of the same binder?
A: The EC50 was 19 nM.

B4: F010302330 (VHH)
VHH: EVQLVESGGGVVQPGGSLRLSCAASGPVFNINRMAWYRQAPGKQRELVAYVTPTGDISYADSVKGRFTISRDASKRVYLQMNSLRPEDTALYYCRALLQPDRYSNTRTYWGQGTLVTVSS
notes: also called F0103387G04(L11V, A12V, K33R, R39Q, S50Y, S56D, T60A, G73A, W78V, S79Y, T83R, V89L, N93R, S100R)
Q: B4 was tested. Which Bmax [1] did it give?
A: The Bmax was 93%.

Q: What about the EC50 [1] of the same binder?
A: The EC50 was 10 nM.

Q: And the Bmax [2]?
A: The Bmax was 23%.

Q: And the EC50 [2]?
A: The EC50 was 200 nM.

B5: F010302331 (VHH)
VHH: EVQLVESGGGVVQPGGSLRLSCAASGPVFNINRMAWYRQAPGKQRELVAYVTPTGDISYADSVKGRFTISRDRSKRVYLQMNSLRPEDTALYYCRALLQPDRYSNTRTYWGQGTLVTVSS
notes: also called F0103387G04(L11V, A12V, K33R, R39Q, S50Y, S56D, T60A, G73R, W78V, S79Y, T83R, V89L, N93R, S100R)
Q: With B5 as the binder, how does the Bmax [1] read?
A: Its Bmax is 90%.

Q: What about the EC50 [1] of the same binder?
A: Its EC50 is 6 nM.

Q: What about the Bmax [2] of the same binder?
A: Its Bmax is 38%.

Q: And the EC50 [2]?
A: The EC50 was 24 nM.

B6: F010302370 (VHH)
VHH: EVQLVESGGGVVQPGGSLRLSCAASGPVFNINRMAWYRQAPGKQRELVAYVTPTGDISYADSVKGRFTISRDRSKRVYLQMNSLRPEDTALYYCRALLQPSSYSITRTYWGQGTLVTVSS
notes: also called F0103387G04(L11V, A12V, K33R, R39Q, S50Y, S56D, T60A, G73R, W78V, S79Y, T83R, V89L, N93R, D99S, N100cI)
Q: How did the Bmax [1] turn out when B6 was run?
A: The Bmax was 100%.

Q: What about the EC50 [1] of the same binder?
A: The EC50 was 9 nM.

Q: What about the Bmax [2] of the same binder?
A: Its Bmax is 100%.

Q: What about the EC50 [2] of the same binder?
A: Its EC50 is 7.3 nM.

B7: F010302371 (VHH)
VHH: EVQLVESGGGVVQPGGSLRLSCAASGPVFNINRMAWYRQAPGKQRELVAYVTPTGDISYADSVKGRFTISRDRSKRVYLQMNSLRPEDTALYYCRALLQPNVYSITRTYWGQGTLVTVSS
notes: also called F0103387G04(L11V, A12V, K33R, R39Q, S50Y, S56D, T60A, G73R, W78V, S79Y, T83R, V89L, N93R, D99N, S100V, N100cI)
Q: Which results are given for B7?
A: Bmax [1]: 100%; EC50 [1]: 9.4 nM; Bmax [2]: 100%; EC50 [2]: 10 nM

B8: F010302372 (VHH)
VHH: EVQLVESGGGVVQPGGSLRLSCAASGPVFNINRMAWYRQAPGKQRELVAYVTPTGDISYADSVKGRFTISRDRSKRVYLQMNSLRPEDTALYYCRALLQPDVYSITRTYWGQGTLVTVSS
notes: also called F0103387G04(L11V, A12V, K33R, R39Q, S50Y, S56D, T60A, G73R, W78V, S79Y, T83R, V89L, N93R, S100V, N100cI)
Q: B8 was tested. Which Bmax [1] did it give?
A: Its Bmax is 100%.

Q: And the EC50 [1]?
A: Its EC50 is 17 nM.

Q: What about the Bmax [2] of the same binder?
A: Its Bmax is 100%.

Q: And the EC50 [2]?
A: The EC50 was 20 nM.

B9: F010302384 (VHH)
VHH: EVQLVESGGGVVQPGGSLRLSCAASGPVFNINRMAWYRQAPGKQRELVAYVTPTGDISYADSVKGRFTISRGGSKRVYLQMNSLRPEDTALYYCRALLQPSSYSITRTYWGQGTLVTVSS
notes: also called F0103387G04(L11V, A12V, K33R, R39Q, S50Y, S56D, T60A, D72G, W78V, S79Y, T83R, V89L, N93R, D99S, N100cI)
Q: B9 was tested. Which Bmax [1] did it give?
A: The Bmax was 100%.

Q: And the EC50 [1]?
A: Its EC50 is 6.2 nM.

Q: And the Bmax [2]?
A: Its Bmax is 100%.

Q: What about the EC50 [2] of the same binder?
A: The EC50 was 4.3 nM.

B10: F010302385 (VHH)
VHH: EVQLVESGGGVVQPGGSLRLSCAASGPVFNINRMAWYRQAPGKQRELVAYVTPTGDISYADSVKGRFTISRQGSKRVYLQMNSLRPEDTALYYCRALLQPSSYSGTRTYWGQGTLVTVSS
notes: also called F0103387G04(L11V, A12V, K33R, R39Q, S50Y, S56D, T60A, D72Q, W78V, S79Y, T83R, V89L, N93R, D99S, N100cG)
Q: Which results are given for B10?
A: Bmax [1]: 100%; EC50 [1]: 7.9 nM; Bmax [2]: 100%; EC50 [2]: 5 nM

B11: F010302386 (VHH)
VHH: EVQLVESGGGVVQPGGSLRLSCAASGPVFNINRMAWYRQAPGKQRELVAYVTPTGDISYADSVKGRFTISRQGSKRVYLQMNSLRPEDTALYYCRALLQPSSYSITRTYWGQGTLVTVSS
notes: also called F0103387G04(L11V, A12V, K33R, R39Q, S50Y, S56D, T60A, D72Q, W78V, S79Y, T83R, V89L, N93R, D99S, N100cI)
Q: For B11, which Bmax [1] is on record?
A: The Bmax was 100%.

Q: What about the EC50 [1] of the same binder?
A: The EC50 was 7.3 nM.

Q: What about the Bmax [2] of the same binder?
A: The Bmax was 100%.

Q: And the EC50 [2]?
A: Its EC50 is 4.9 nM.

B12: F010301840 (VHH)
VHH: EVQLVESGGGVVQPGGSLRLSCAASGPVFNINRMAWYRQAPGKQRELVAYVTPTGDISYTDSVKGRFTISRDGSKRTWSLQMNSLRPEDTALYYCRALLQPDSYSNTRTYWGQGTLVTVSS
notes: also called F0103387G04(R76_V78insT)(L11V, A12V, K33R, R39Q, S50Y, S56D, T83R, V89L, N93R)
Q: Which results are given for B12?
A: Bmax [1]: 100%; EC50 [1]: 47 nM; Bmax [2]: 50%; EC50 [2]: 48 nM

B13: F010301865 (VHH)
VHH: EVQLVESGGGVVQPGGSLRLSCAASGPVFNINRMAWYRQAPGKQRELVAYVTPTGDISYADSVKGRFTISRDGSKRVYLQMNSLRPEDTALYYCRALLQPDSYSNTRTYWGQGTLVTVSA
notes: also called F0103387G04(L11V, A12V, K33R, R39Q, S50Y, S56D, T60A, W78V, S79Y, T83R, V89L, N93R)
Q: What does the source list for B13?
A: Bmax [1]: 100%; EC50 [1]: 20 nM; Bmax [2]: 100%; EC50 [2]: 11 nM
